Laboratory results: patent US20260103529A1, “Amino Acid Sequences Directed Against the Melanocortin 4 Receptor and Polypeptides Comprising the Same for the Treatment of MC4R-Related Diseases and Disorders” (Confo Therapeutics N.V., priority 2022, published 2026)

Target: MC4R of the CHO stable cell line used for radioligand displacement (Table 1A) (UniProt P32245)
Experiment: radioligand displacement, CHO stable cell line, n = 2; radioligand not named

Radioligand displacement (IC50 or Ki not stated): 6.48 nM
B1: pN0162 (VHH)
VHH: QVQLVESGGGLVQPGGSLRLSCAASGSAFSLNVMGWYRQTPGNQRALVAEITKDGSTNYADSAKGRFTISRDNAKNTVHLQMDSLKPEDTAVYYCKARTGRIVRPLDYWGQGTQVTVSS
